Source: patent US20220324997A1

Target: CD55 on healthy donor erythrocytes (human) (UniProt P08174)
Assay: flow cytometry on healthy donor erythrocytes, mAb at 10 µg/ml, positive control

UniProt P08174, sequence (P08174 35-353): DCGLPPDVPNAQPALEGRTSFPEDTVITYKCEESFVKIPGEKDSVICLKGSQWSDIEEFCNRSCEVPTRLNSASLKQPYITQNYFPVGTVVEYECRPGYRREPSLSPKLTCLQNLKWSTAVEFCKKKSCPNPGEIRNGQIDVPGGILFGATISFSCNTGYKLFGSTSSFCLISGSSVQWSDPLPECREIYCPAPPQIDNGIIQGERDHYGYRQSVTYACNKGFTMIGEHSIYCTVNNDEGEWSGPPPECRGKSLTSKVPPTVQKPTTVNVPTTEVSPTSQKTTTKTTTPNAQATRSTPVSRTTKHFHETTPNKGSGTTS

791T/36 (anti-CD55 mAb) (antibody)
Gm (geometric mean fluorescence): 202
